# Measurements: IntAct's records for PubMed 23085078
# B1: mRNA-decapping enzyme 1A (Homo sapiens), Q9NPI6 (parent)
# chain: MEALSRAGQEMSLAALKQHDPYITSIADLTGQVALYTFCPKANQWEKTDIEGTLFVYRRSASPYHGFTIVNRLNMHNLVEPVNKDLEFQLHEPFLLYRNASLSIYSIWFYDKNDCHRIAKLMADVVEEETRRSQQAARDKQSPSQANGCSDHRPIDILEMLSRAKDEYERNQMGDSNISSPGLQPSTQLSNLGSTETLEEMPSGSQDKSAPSGHKHLTVEELFGTSLPKEQPAVVGLDSEEMERLPGDASQKEPNSFLPFPFEQLGGAPQSETLGVPSAAHHSVQPEITTPVLITPASITQSNEKHAPTYTIPLSPVLSPTLPAEAPTAQVPPSLPRNSTMMQAVKTTPRQRSPLLNQPVPELSHASLIANQSPFRAPLNVTNTAGTSLPSVDLLQKLRLTPQHDQIQTQPLGKGAMVASFSPAAGQLATPESFIEPPSKTAAARVAASASLSNMVLAPLQSMQQNQDPEVFVQPKVLSSAIPVAGAPLVTATTTAVSSVLLAPSVFQQTVTRSSDLERKASSPSPLTIGTPESQRKPSIILSKSQLQDTLIHLIKNDSSFLSTLHEVYLQVLTKNKDNHNL
# B2: Proline-rich nuclear receptor coactivator 2 (Homo sapiens), Q9NPJ4-1 (parent)
# chain: MGGGERYNIPAPQSRNVSKNQQQLNRQKTKEQNSQMKIVHKKKERGHGYNSSAAAWQAMQNGGKNKNFPNNQSWNSSLSGPRLLFKSQANQNYAGAKFSEPPSPSVLPKPPSHWVPVSFNPSDKEIMTFQLKTLLKVQV
# partner: B1 chain
# Variants of: B1
# Details: with PNRC2, Q9NPJ4-1
row,effect of a mutation on the interaction,Variant
1,disrupting interaction strength,L96A
2,decreasing interaction strength,W45A
3,decreasing interaction strength,F94A
4,decreasing interaction strength,Y36A
5,decreasing interaction strength,R98A

# Variants of: B2
# Details: with dcp1a_human DCP1A
row,effect of a mutation on the interaction,Variant
1,disrupting interaction strength,K109A
2,disrupting interaction strength,W114A
3,decreasing interaction strength,P108A
